What was measured:
[1] = tested on: FSTL1-induced proliferation of immature cardiomyocytes; test: Screen of signal transduction inhibitors on FSTL1-induced proliferation; format: cell-based; conditions: EMD StemSelect compound library
Description: (§1) Experiments were conducted to analyze the proliferative response of early cardiomyocytes to FSTL1. 7 days following FSTL1 treatment, we observed that a remarkable 50% of the differentially expressed transcripts are known targets of the JAK/STAT and interferon related (IFR) pathways.

[2] = tested on: mCM-d2; test: phospho-Histone3 proliferation in mCM-d2; format: cell-based, mouse; conditions: mCM-d2 treated for 48 hrs
[3] = tested on: mouse MI model; test: Route of FSTL1 delivery in the mouse MI model; format: in vivo; conditions: compared to epicardial-localized delivery
Excerpt: Key variables, including time of delivery and the effectiveness following reperfusion. A second critical issue concerns the localized site of FSTL1 delivery. Systemic delivery was not effective in the mouse MI model, compared to epicardial-localized delivery. However, the present the epicardial biomaterial patch itself may provide an effective physical support that could synergize with a systemic FSTL1 delivery. FSTL1 must be delivered epicardial to be effective, and may done by impregnated into the collagen of the patch.

[4] = tested on: mESC-derived immature cardiomyocytes (mCM-d2); test: Kinetic Image Cytometry of rhythmic calcium transients in mCM-d2; format: cell-based, mouse; conditions: 10 ng/ml, eight days of treatment, mCM-d2, KIC analysis
Description: (§2) H2B-mCherry EMCs were maintained in DMEM with 10% FBS and antibiotics/antimycotic. Myh6-Puro^r;Rex-Blast^r mESCs were generated by Lentiviral transduction and Blasticidin selection, and then cultured. For cardiac differentiation, ESCs were cultured in Iscove's Modified Dulbecco Media (IMDM) supplemented with 10% FBS, 2 mM glutamine, 4.5×10^−4 M monothioglycerol, 0.5 mM ascorbic acid, 200 ug/mL transferrin (Roche), 5% protein-free hybridoma media (PFHM-II, Invitrogen) and antibiotics/antimycotic and differentiated as either embryoid bodies (EBs) formation or monolayer. Puromycin was added at differentiation day 10 for two days to enrich cardiomyocyte. The cells were then trypsinized and plated as monolayer cardiomyocytes. Conditioned media were collected after 2 days culturing of confluent EMC cells and passed through 0.22 um filters (Millipore). Control conditioned media were prepared the same way without EMC cells. Recombinant Fstl1 was purchased from ADIPO BIOSCIENCE.
Kinetic Image Cytometer from Vala was used as instructed to record intracellular calcium transient with Fluo4 NW calcium indicator (Life Science). Data was processed using Cyteseer (Vala).

[5] = tested on: Neonate Rat Ventricular Cardiomyocytes (NRVC); test: Cell cycle profile of neonate rat ventricular cardiomyocytes (flow cytometry); format: cell-based; conditions: NRVC treated for 24 hours
Description: Ventricular cardiomyocytes were isolated with neonatal rat cardiomyocyte isolation kit (Cellutron) and cultured at 37° C. with 5% CO2. In brief, ventricles were dissected from 1-2-d-old Hsd:SD rats (Sprage Dawley), then digested five times for 15 min each with the enzyme cocktail at 37° C. Cells were pooled, preplated for 90 min on an uncoated dish to remove fibroblasts, and plated on 1% gelatin-coated cell culture plastic dishes in high-serum media (DME/F12 [1:1], 0.2% BSA, 3 mM sodium-pyruvate, 0.1 mM ascorbic acid, 4 mg/liter transferrin, 2 mM L-glutamine, and 5 mg/liter ciprofloxacin supplemented with 10% horse serum and 5% FCS) at 3×10^5 cells/cm2. After 24 h, media was changed to low-serum medium (same but with 0.25% FCS) and cultured until use.
The cell cycle profile of cardiac cells was analyzed as described. In brief, cells were fixed for 1 h at 4° C. with 0.25% PFA and then permeabilized for 15 min at 37° C. with 0.2% Tween 20 before incubation with α-actinin and secondary antibodies (Alexa 488—conjugated anti-mouse Ig) diluted 1:100 in FACS buffer (PBS with 1% goat serum and 0.1% NaN3). Cells were then stained with 10 μg/ml propidium iodide in FACS buffer supplemented with 500 μg/ml of RNAase A. Flow cytometry was performed on BD FACSCanto. FlowJo and ModFit software were used to analyze the results.

[6] = tested on: mESC-derived immature cardiomyocytes (mCM-d2); test: Number of α-actinin+ cardiomyocytes in mCM-d2 cultures; format: cell-based, mouse; conditions: 10 ng/ml, eight days of treatment
Description: as §2
We utilized an epicardial/mesothelial cell line (EMC) to investigate the interaction between epicardium and myocardium.
We applied 10 ng/ml purified hFstl1 onto the mCM-d2 system of ESC-derived early cardiomyocytes, similarly to the coculture and conditioned media experiments described in FIG. 2.

[7] = tested on: early cardiomyocytes; test: Whole transcriptome profiling of early cardiomyocytes after FSTL1 treatment; format: cell-based; conditions: 7 days following FSTL1 treatment
Description: In one approach, whole transcriptome profiling after long and short term treatment is used. Transcriptome profiling is a common approach to gain insight into signaling pathways through the analysis of pathway selective gene expression. Responsive cells selected in the previous experiments are incubated with FSTL1 for 24 hours (short-term) or 7 day (long-term). Transcripts are profiled using microarrays (Affymetrix). Candidate factors are then validated functionally using small molecule inhibitors (if available) and/or siRNA.
as §1

[8] = tested on: mESC-derived immature cardiomyocytes (mCM-d2); test: Q-RT-PCR of cardiac-specific markers in mCM-d2; format: cell-based, mouse; conditions: 10 ng/ml, eight days of treatment
Description: as §2
Total RNA was extracted with TRIzol (Invitrogen) and reverse transcribed to cDNA with QuantiTect Reverse Transcription Kit (Qiagen) according to the manufacturer's instructions. cDNA samples synthesized from 100 ng of total RNA were subjected to RT-QPCR with LightCycler 480 SYBR Green I Master kit (Roche) performed with LightCycler 480 Real-Time PCR System (Roche).

Molecule: C[C@H](NC(=O)/C(C#N)=C/c1cccc(Br)n1)c1ccccc1 [WP1066]
- effect on FSTL1-induced proliferation [1]: blocked

B1: Fstl1: Secreted glycoprotein encoded by the FSTL1 gene (SEQ ID NO: 1, UniProt Q12841); recombinant protein purchased from ADIPO BIOSCIENCE (protein, listed as Homo sapiens)
chain: MWKRWLALALALVAVAWVRAEEELRSKSKICANVFCGAGRECAVTEKGEPTCLCIEQCKPHKRPVCGSNGKTYLNHCELHRDACLTGSKIQVDYDGHCKEKKSVSPSASPVVCYQSNRDELRRRIIQWLEAEIIPDGWFSKGSNYSEILDKYFKNFDNGDSRLDSSEFLKFVEQNETAINITTYPDQENNKLLRGLCVDALIELSDENADWKLSFQEFLKCLNPSFNPPEKKCALEDETYADGAETEVDCNRCVCACGNWVCTAMTCDGKNQKGAQTQTEEEMTRYVQELQKHQETAEKTKRVSTKEI
- phospho-Histone3+ cells [2]: significantly more
- efficacy of systemic delivery [3]: not effective
- increase in the number of cardiomyocytes displaying rhythmic calcium transient [4]: 7-8 folds
- percentage of cells in S/G2/M phase [5]: significantly increased
- increase in the number of cardiomyocytes [6]: 4 fold
- differentially expressed transcripts that are known targets of the JAK/STAT and interferon related (IFR) pathways [7]: 50%
- increase in mRNA content of contractile proteins (including Myh6, Mlc2v, and Mlc2a) [8]: 2-3 folds
